Experimental data as given in US20050003403A1 (IBC PHARMACEUTICALS, published 2005).

T1: carcinoembryonic antigen (CEA) (UniProt P06731 35-685, limits assumed)
T1 construct: Coated on ELISA wells (0.5 ug/well), injected in BIAcore, or mixed in solution for SE-HPLC
T1 sequence (looked up): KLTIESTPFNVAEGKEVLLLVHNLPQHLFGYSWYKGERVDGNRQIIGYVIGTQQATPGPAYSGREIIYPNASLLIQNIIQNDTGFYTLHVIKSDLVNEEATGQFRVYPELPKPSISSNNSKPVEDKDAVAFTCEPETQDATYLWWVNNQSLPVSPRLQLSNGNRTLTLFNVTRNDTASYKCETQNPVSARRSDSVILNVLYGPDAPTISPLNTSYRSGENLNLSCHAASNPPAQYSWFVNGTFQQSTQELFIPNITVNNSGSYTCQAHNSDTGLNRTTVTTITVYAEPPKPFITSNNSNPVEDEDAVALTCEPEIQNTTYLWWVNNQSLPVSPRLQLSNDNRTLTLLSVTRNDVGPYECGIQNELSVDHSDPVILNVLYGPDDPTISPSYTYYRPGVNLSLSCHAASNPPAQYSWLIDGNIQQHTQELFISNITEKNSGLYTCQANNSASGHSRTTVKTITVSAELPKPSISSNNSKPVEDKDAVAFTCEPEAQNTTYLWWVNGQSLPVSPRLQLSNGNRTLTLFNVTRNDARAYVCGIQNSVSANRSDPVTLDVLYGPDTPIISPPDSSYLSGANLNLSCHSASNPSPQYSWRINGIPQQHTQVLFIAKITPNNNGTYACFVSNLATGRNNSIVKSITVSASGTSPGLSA

B1: hMN-14 F(ab')2 (other)
VH: EVQLVESGGGVVQPGRSLRLSCSASGFDFTTYWMSWVRQAPGKGLEWIGEIHPDSSTINYAPSLKDRFTISRDNAKNTLFLQMDSLRPEDTGVYFCASLYFGFPWFAYWGQGTPVTVS
VL: DIQLTQSPSSLSASVGDRVTITCKASQDVGTSVAWYQQKPGKAPKLLIYWTSTRHTGVPSRFSGSGSGTDFTFTISSLQPEDIATYYCQQYSLYRSFGQGTKVEIKR
notes: F(ab')2 of humanized anti-CEA hMN-14, 100 kDa; The VH in the construct ends ...VTVS
B2: BS14HP (bispecific antibody)
chain 1: EAEAEFMEVQLVESGGDLVKPGGSLKLSCAASGFTFSIYTMSWLRQTPGKGLEWVATLSGDGDDIYYPDSVKGRFTISRDNAKNSLYLQMNSLRAEDTALYYCARVRLGDWDFDVWGQGTTVSVSSGGGGSDIQLTQSPSSLSASVGDRVTITCKASQDVGTSVAWYQQKPGKAPKLLIYWTSTRHTGVPSRFSGSGSGTDFTFTISSLQPEDIATYYCQQYSLYRSFGQGTKVEIKRLEGGGSEVQLVESGGGVVQPGRSLRLSCSASGFDFTTYWMSWVRQAPGKGLEWIGEIHPDSSTINYAPSLKDRFTISRDNAKNTLFLQMDSLRPEDTGVYFCASLYFGFPWFAYWGQGTPVTVSVDHHHHHH
chain 2: EAEAEFDIQLTQSPSSLSASVGDRVTITCKASQDVGTSVAWYQQKPGKAPKLLIYWTSTRHTGVPSRFSGSGSGTDFTFTISSLQPEDIATYYCQQYSLYRSFGQGTKVEIKRGGGQFMEVQLVESGGGVVQPGRSLRLSCSASGFDFTTYWMSWVRQAPGKGLEWIGEIHPDSSTINYAPSLKDRFTISRDNAKNTLFLQMDSLRPEDTGVYFCASLYFGFPWFAYWGQGTPVTVSGGGGSDIVMTQSPSSLAVSPGERVTLTCKSSQSLFNSRTRKNYLGWYQQKPGQSPKLLIYWASTRESGVPDRFSGSGSGTDFTLTINSLQAEDVAVYYCTQVYYLCTFGAGTKLELKRLDHHHHHH
notes: Non-covalent heterodimer with two CEA sites and one HSG site; The alpha-factor signal peptide is removed on secretion; also called bispecific trivalent heterodimer; hMN-14 x hMN-14 x 679 produced in Pichia pastoris
B3: BS1.5H (bispecific antibody)
chain 1: MEVQLVESGGDLVKPGGSLKLSCAASGFTFSIYTMSWLRQTPGKGLEWVATLSGDGDDIYYPDSVKGRFTISRDNAKNSLYLQMNSLRAEDTALYYCARVRLGDWDFDVWGQGTTVSVSSGGGGSDIQLTQSPSSLSASVGDRVTITCKASQDVGTSVAWYQQKPGKAPKLLIYWTSTRHTGVPSRFSGSGSGTDFTFTISSLQPEDIATYYCQQYSLYRSFGQGTKVEIKRLEHHHHHH
chain 2: MEVQLVESGGGVVQPGRSLRLSCSASGFDFTTYWMSWVRQAPGKGLEWIGEIHPDSSTINYAPSLKDRFTISRDNAKNTLFLQMDSLRPEDTGVYFCASLYFGFPWFAYWGQGTPVTVSGGGGSDIVMTQSPSSLAVSPGERVTLTCKSSQSLFNSRTRKNYLGWYQQKPGQSPKLLIYWASTRESGVPDRFSGSGSGTDFTLTINSLQAEDVAVYYCTQVYYLCTFGAGTKLELKRLEHHHHHH
B4: hBS14 (bispecific antibody)
chain 1: MEVQLVESGGDLVKPGGSLKLSCAASGFTFSIYTMSWLRQTPGKGLEWVATLSGDGDDIYYPDSVKGRFTISRDNAKNSLYLQMNSLRAEDTALYYCARVRLGDWDFDVWGQGTTVSVSSGGGGSDIQLTQSPSSLSASVGDRVTITCKASQDVGTSVAWYQQKPGKAPKLLIYWTSTRHTGVPSRFSGSGSGTDFTFTISSLQPEDIATYYCQQYSLYRSFGQGTKVEIKRLEGGGSEVQLVESGGGVVQPGRSLRLSCSASGFDFTTYWMSWVRQAPGKGLEWIGEIHPDSSTINYAPSLKDRFTISRDNAKNTLFLQMDSLRPEDTGVYFCASLYFGFPWFAYWGQGTPVTVSVDHHHHHH
chain 2: MDIQLTQSPSSLSASVGDRVTITCKASQDVGTSVAWYQQKPGKAPKLLIYWTSTRHTGVPSRFSGSGSGTDFTFTISSLQPEDIATYYCQQYSLYRSFGQGTKVEIKRGGGQFMEVQLVESGGGVVQPGRSLRLSCSASGFDFTTYWMSWVRQAPGKGLEWIGEIHPDSSTINYAPSLKDRFTISRDNAKNTLFLQMDSLRPEDTGVYFCASLYFGFPWFAYWGQGTPVTVSGGGGSDIVMTQSPSSLAVSPGERVTLTCKSSQSLFNSRTRKNYLGWYQQKPGQSPKLLIYWASTRESGVPDRFSGSGSGTDFTLTINSLQAEDVAVYYCTQVYYLCTFGAGTKLELKRLDHHHHHH
notes: 79.4 kDa heterodimer of polypeptide 1 and polypeptide 2, produced in SP2/0, YB2/0 or NS0 cells; Bivalent for CEA, monovalent for HSG; also called bispecific trivalent heterodimer expressed in myeloma cells; hMN-14 x hMN-14 x 679

Key:
[1] = biological target: T1, carcinoembryonic antigen (CEA); assay: competitive ELISA, CEA-coated wells (0.5 ug/well), competitor HRP-conjugated hMN-14 IgG (1 nM)
Procedure: HRP-conjugated hMN14 IgG (1 nM) was mixed with either BS14HP, BS1.5H (a bispecific diabody, monovalent for CEA and monovalent for HSG, derived from the same variable domains as BS14HP) or hMN14 F(ab′)₂ at concentrations ranging from 1-250 nM, prior to incubation in CEA-coated (0.5 μg/well) wells. The % inhibition is plotted vs. nM concentration of sample.
The CEA binding of BS14HP was analyzed in a competitive ELISA and compared to BS1.5H and hMN-14 F(ab′)₂, which have one and two CEA binding groups, respectively (FIG. 6). HRP-conjugated hMN-14 IgG (1 nM) was mixed with either BS14HP, BS1.5H or hMN-14 F(ab′)₂ at concentrations ranging from 1 to 250 nM, prior to incubation in CEA-coated (0.5 μg/well) wells. The IC₅₀ for BS14HP was 2.7 nM which is close to 2.0 nM for hMN14 F(ab′)₂.

[2] = biological target: T1, carcinoembryonic antigen (CEA); assay: BIAcore, hBS14 captured on HSG sensorchip, then CEA injected

Binder | IC50 [1] [nM] | binding result [2]
B1 | 2 | 
B2 | 2.7 | 
B3 | 10 | 
B4 |  | binds
